According to patent publication US20250357519:

How the values were obtained:
[1] = target: partially acetylated equine heart cytochrome c (Sigma C4186), P00004
[2] = target: native equine heart cytochrome c (Sigma C2506), P00004
Chain of native equine heart cytochrome c (Sigma C2506), P00004 (P00004 2-105): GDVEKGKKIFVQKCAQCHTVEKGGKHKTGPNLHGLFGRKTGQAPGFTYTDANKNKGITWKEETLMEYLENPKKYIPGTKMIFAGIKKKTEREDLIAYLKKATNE

Chain of partially acetylated equine heart cytochrome c (Sigma C4186), P00004 (P00004 2-105): as above

B1: Strep-tag II-tagged DvH-FDH2 (recombinant formate dehydrogenase 2 from Desulfovibrio vulgaris Hildenborough, heterodimer of large and small subunit) (protein)
chain 1: MRMPRRTFIKLASASAGALAFAGLGQSLAPTVARAAELKIAKAKVTPSVCCFCAVGCGLLVYTDTQTGRSINIEGDPDHPTNEGTLCPKGASIWQTTERSKRVTKVLYRAPGAAAWEEKSWDWALPRIARKIKETRDATFELTNDKGQTVNRTRGIASVGSAAVDNEEGWLMQAMMRALGLVYIESHARIUHSSTVGALAESYGRGAMTNHWIDLKNSDVILIMGSNAAENHPISFKWVTRAQERGATLIHVDPRFTRTSAKADIHAHIRSGTDIAFFGGLIRYIMENDLFFRQYVVDYTNASYIVGADYGFADGLFTGFDAEKGTYNTKKWAFAADENGMTLKDPTLNDPRCVFQLMKAHYARYDRKTVSDVTGISEEQLATLWSTFASTGKPDRAGTILYAMGQCQHTVGVQNIRALSMIQLLLGNIGIAGGGVNALRGESNVQGTTDISLLCDNLSGYLPTPKASWATFDDYVKGTTPVDKDPKSANWWSNRGKYLASYMKSVYPTASHQDGYLWHPKVDDGKITDYSWLQIFERMSKGGFKGAFVWGQNPCAGGANAGKNRKAMETLDWMVVVNLFENESSLFWKGPGVDPAKVKTEVFFLPACMSVEKGGSIANSGRWLQWREPGPKPMGDSRSDGDIVLDLYDEIRKLYREEKGAFPEPVLALDTDYRTDGKYDHHKVAKTLNGKFLTDVTIGDKTYKAGQQVPGFAMLQADGSTTSGCWIFTGCYTDAGNMMARRDRTQTPEQAAIGLFPNWSYAWPANRRILYNRAAVDMTGKPFDPKRAVIAWNGEKWVGDVPDGGWKPGEKLPFIMIREGRGQLFGPGRVDGPFPEHYEPFESPLESHPFSKQRVNPTALAFSHEPKAVRDKRYPFICTTYRVTEQWQSGTMTRNTGWLKEMQPEGFCEISRELAKELGIANGDAVVLESLRGKVQVVAIVTPRLKPFKVMGEVMHEVGIPWQFGWGQHVGKGDSANLLSPSVGDPNTGIPETKVFMVNLRKA
chain 2: MRPLGSLPQGMRRVSRRHIREAYMNGKTFFIDQTRCTACRGCQAACKQWKKFGSIETRNTGSYQNPPDLGPSTFKLVRFNEVEVDGKLKWLFFPEQCRHCLEPPCKMVADALIPGAIVQDAETGAVLYTEKTKGLDYMEVRSACPYDIPRQDPATGLLTKCNMCIDRVQNGMLPACVKTCPTGTMHFGDRADMLELAQKRLGEVKKRSPAALLADSDLVRVLYLCELAPANYHSHMVAEADTSRIGPFSRRALLRLRPFA
[1]
  reduction of acetylated equine cytochrome c during DvH-FDH2 catalysis (absorbance at 550 nm): DvH-FDH2 does not reduce acetylated cytochrome c
[2]
  reduction of native equine cytochrome c in air at doubled formate concentration (electronic spectra): Doubling the formate concentration resulted in near-stoichiometric reduction in air
  reduction of native equine cytochrome c in the presence of formate (absorbance at 550 nm), anaerobic: stoichiometric reduction occurred under anaerobic conditions
  reduction of native equine cytochrome c in the presence of formate (absorbance at 550 nm), in air: ~80% underwent reduction in air
